Results: publication PMC3149064, “Differential Calcium Signaling by Cone Specific Guanylate Cyclase-Activating Proteins from the Zebrafish Retina” (PLoS ONE, 2011)

B1: zebrafish guanylate cyclase-activating protein 7 (natural protein, zebrafish (Danio rerio), UniProt Q5MAC7 1-187, looked up)
chain: MGQNQSDEEEEEVELTEIQPLYTRFMKVCPSGALHLHEFRRIFGVQSSSEEEALYMETIFKSFDTNRDNVIDFMEFVAAVHLVLRGNLEDRLKWSFKVYDRDENGKLDRQEVIHVIRILCKLKKNRINMTPVEICDRIFELLDENNDGQISLSEFLEGAEKDAWIMDLLKLDTNARVWFRDNLGKKT
notes: Non-myristoylated; also called zGCAP7; source: anion exchange, ammonium sulfate precipitation, SEC

How the values were obtained:
[1] = biological target: zebrafish guanylate cyclase-activating protein 1 (zebrafish (Danio rerio)); test: SEC; analytical size exclusion chromatography (HPLC) on a BioSep-SEC S2000 column with molecular mass standards, 20 µg purified protein, run in the presence of 0.5 mM EGTA (Ca2+-free); dimer to monomers
[2] = biological target: the molecule itself; test: as above

Row | Molecule | percent dimers [1] | stoichiometry N [1] | stoichiometry N [2]
1 | zebrafish guanylate cyclase-activating protein 1 (natural protein) | 18% | 2 | –
2 | B1 | – | – | 2
